Where two headings read alike, the source gives them in different places.
Key:
[1] = biological target: T1, Aminopeptidase B (His-rAp-B) (Rattus norvegicus, UniProt O09175); experiment: L-Arg-β-NA hydrolysis assay with recombinant enzyme; Ki and percent inhibition ([…] at […]); format: biochemical
T1 construct: gene Rnpep; His-tagged full-length rat Ap-B (673 residues incl. His-tag/Factor Xa site; 650-residue Ap-B) from E. coli
T1 sequence (O09175 1-650): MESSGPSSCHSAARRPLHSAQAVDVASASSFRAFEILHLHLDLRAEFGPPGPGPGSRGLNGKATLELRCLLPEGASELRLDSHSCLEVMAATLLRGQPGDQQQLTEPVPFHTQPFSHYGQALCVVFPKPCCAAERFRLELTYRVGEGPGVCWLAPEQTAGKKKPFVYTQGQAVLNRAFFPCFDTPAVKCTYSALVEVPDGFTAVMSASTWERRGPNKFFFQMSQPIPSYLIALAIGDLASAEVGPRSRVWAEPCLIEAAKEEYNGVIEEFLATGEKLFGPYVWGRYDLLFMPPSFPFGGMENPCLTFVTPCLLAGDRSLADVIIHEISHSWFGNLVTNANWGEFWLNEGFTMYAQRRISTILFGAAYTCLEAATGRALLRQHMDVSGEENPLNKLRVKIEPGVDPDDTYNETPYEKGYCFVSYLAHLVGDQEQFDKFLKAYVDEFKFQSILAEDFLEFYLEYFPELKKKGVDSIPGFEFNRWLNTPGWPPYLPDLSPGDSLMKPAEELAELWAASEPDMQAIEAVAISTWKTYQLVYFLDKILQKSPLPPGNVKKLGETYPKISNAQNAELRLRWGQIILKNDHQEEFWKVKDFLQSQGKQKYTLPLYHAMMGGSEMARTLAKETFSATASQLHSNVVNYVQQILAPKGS

[2] = biological target: T1, Aminopeptidase B (His-rAp-B); experiment: as above; format: biochemical; remark: listed apart in the source
[3] = biological target: T1, Aminopeptidase B (His-rAp-B); experiment: as above; format: biochemical; remark: listed apart in the source
[4] = substrate: N=C(N)NCCC[C@H](N)C(=O)Nc1ccc2ccccc2c1; experiment: purified protein; format: biochemical, Rattus norvegicus; conditions: Zn2+
[5] = substrate: NCCCC[C@H](N)C(=O)Nc1ccc2ccccc2c1; experiment: purified protein; format: biochemical, Rattus norvegicus; conditions: Zn2+

Molecule: NC(N)=NCCC[C@H](N)C(=O)C[C@@H](Cc1ccccc1)C(=O)O [Arphamenine A]
- Ki [1]: 20 nM

Molecule: N=C(N)NCCC[C@H](N)C(=O)C[C@@H](Cc1ccc(O)cc1)C(=O)O [Arphamenine B]
- Ki [2]: 20 nM

Molecule: CC(C)C[C@H](NC(=O)[C@@H](O)[C@H](N)Cc1ccccc1)C(=O)O [Bestatin]
- Ki [3]: 50 nM

B1: Aminopeptidase B (His-rAp-B) (Rattus norvegicus) (protein)
chain: T1 sequence (O09175 1-650)
notes: His-tagged full-length rat Ap-B (673 residues incl. His-tag/Factor Xa site; 650-residue Ap-B) from E. coli, Ni-NTA purified
- Km [4]: 108 ± 13 µM
- Vmax [4]: 8.76 µM/min
- kcat [4]: 20 ± 3 s⁻¹
- kcat/Km [4]: 185000 M⁻¹ s⁻¹
- Km [5]: 135 ± 30 µM
- Vmax [5]: 3.9 µM/min
- kcat [5]: 3 ± 0.35 s⁻¹
- kcat/Km [5]: 22000 ± 2000 M⁻¹ s⁻¹
